US20060239990A1 (published 2006)

T1: mouse retinoblastoma protein (RB), endogenous in MEFs (mouse, UniProt P13405 2-921)
T1 sequence (looked up): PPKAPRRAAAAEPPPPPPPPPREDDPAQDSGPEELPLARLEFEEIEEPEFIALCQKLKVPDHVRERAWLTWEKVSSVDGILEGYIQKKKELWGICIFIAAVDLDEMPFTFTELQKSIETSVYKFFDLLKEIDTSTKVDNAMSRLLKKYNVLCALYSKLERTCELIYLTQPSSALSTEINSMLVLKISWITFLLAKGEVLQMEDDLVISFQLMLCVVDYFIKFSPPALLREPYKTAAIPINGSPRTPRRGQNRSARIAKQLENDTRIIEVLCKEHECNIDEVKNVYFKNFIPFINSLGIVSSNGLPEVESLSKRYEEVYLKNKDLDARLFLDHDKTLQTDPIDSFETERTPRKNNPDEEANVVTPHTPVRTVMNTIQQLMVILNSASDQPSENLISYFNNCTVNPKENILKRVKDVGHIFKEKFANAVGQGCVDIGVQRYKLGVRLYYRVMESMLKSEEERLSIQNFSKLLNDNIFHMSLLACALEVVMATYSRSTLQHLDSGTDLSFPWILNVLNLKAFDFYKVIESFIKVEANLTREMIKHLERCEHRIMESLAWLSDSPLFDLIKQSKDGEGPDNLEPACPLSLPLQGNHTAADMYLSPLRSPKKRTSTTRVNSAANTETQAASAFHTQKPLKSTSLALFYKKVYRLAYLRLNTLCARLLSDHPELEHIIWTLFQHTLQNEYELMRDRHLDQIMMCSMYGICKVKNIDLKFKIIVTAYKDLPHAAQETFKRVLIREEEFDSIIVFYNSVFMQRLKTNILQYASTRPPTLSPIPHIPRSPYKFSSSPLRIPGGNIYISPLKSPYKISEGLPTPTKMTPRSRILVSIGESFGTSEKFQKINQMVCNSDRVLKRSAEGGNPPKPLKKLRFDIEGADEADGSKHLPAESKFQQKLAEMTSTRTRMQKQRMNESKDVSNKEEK

T2: IκB-α, endogenous in 293 cells (human, UniProt P25963 1-317)
T2 construct: also called endogenous IκB-α
T2 sequence (looked up): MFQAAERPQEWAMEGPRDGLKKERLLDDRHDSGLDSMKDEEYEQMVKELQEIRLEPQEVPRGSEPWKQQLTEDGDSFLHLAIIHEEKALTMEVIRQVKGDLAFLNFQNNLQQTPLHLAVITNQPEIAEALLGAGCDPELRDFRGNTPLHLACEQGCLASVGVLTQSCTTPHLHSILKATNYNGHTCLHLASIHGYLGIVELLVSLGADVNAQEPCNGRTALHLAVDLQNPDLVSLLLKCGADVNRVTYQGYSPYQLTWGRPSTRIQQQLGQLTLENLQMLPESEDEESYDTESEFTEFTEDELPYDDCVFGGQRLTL

B1: mouse PRMT2 (untagged; endogenous in NIH3T3 cells, MEFs, GT1-7 cells and VSMC, or expressed from mouse PRMT2 cDNA in HEK293 cells) (enzyme, UniProt Q9R144 1-448, looked up)
chain: MEAPGEGPCSESQVIPVLEEDPVDYGCEMQLLQDGAQLQLQLQPEEFVAIADYTATDETQLSFLRGEKILILRQTTADWWWGERAGCCGYIPANHLGKQLEEYDPEDTWQDEEYFDSYGTLKLHLEMLADQPRTTKYHSVILQNKESLKDKVILDVGCGTGIISLFCAHHARPKAVYAVEASDMAQHTSQLVLQNGFADTITVFQQKVEDVVLPEKVDVLVSEWMGTCLLFEFMIESILYARDTWLKGDGIIWPTTAALHLVPCSAEKDYHSKVLFWDNAYEFNLSALKSLAIKEFFSRPKSNHILKPEDCLSEPCTILQLDMRTVQVPDLETMRGELRFDIQKAGTLHGFTAWFSVYFQSLEEGQPQQVVSTGPLHPTTHWKQTLFMMDDPVPVHTGDVVHGFCCVTKKSGMEKAHVCLSELGCHVRTRSHVSTELETGSFRSGGDS
notes: also called endogenous PRMT2
B2: HA-tagged PRMT2-A (alternative splice variant, first 218 amino acids of PRMT2) (enzyme)
chain: MATSGDCPRSESQGEEPAECSEAGLLQEGVQPEEFVAIADYAATDETQLSFLRGEKILILRQTTADWWWGERAGCCGYIPANHVGKHVDEYDPEDTWQDEEYFGSYGTLKLHLEMLADQPRTTKYHSVILQNKESLTDKVILDVGCGTGIISLFCAHYARPRAVYAVEASEMAQHTGQLVLQNGFADIITVYQQKVEDVVLPEKVDVLVSEWMGTCLL
notes: Expressed by transfection in 293 cells; not shown: HA tag at the C-terminus
B3: HA-tagged PRMT2-N (first 95 amino acids of PRMT2) (enzyme)
chain: MATSGDCPRSESQGEEPAECSEAGLLQEGVQPEEFVAIADYAATDETQLSFLRGEKILILRQTTADWWWGERAGCCGYIPANHVGKHVDEYDPED
notes: as for B2

How the values were obtained:
[1] = target: T1, mouse retinoblastoma protein (RB), …; experiment: cell-based or functional assay
[2] = target: mouse STAT3 (endogenous in GT1-7 cells and VSMC, or expressed from mouse STAT3 pcDNA3 in HEK293 cells) (mouse, UniProt P42227 2-770); experiment: immunoprecipitation with anti-STAT3 antibody from GT1-7 cell extracts with or without leptin (100 nM), immunoblot with anti-PRMT-2 antibody
Chain of mouse STAT3 (endogenous in GT1-7 cells and VSMC, or expressed from mouse STAT3 pcDNA3 in HEK293 cells) (P42227 2-770 limits assumed): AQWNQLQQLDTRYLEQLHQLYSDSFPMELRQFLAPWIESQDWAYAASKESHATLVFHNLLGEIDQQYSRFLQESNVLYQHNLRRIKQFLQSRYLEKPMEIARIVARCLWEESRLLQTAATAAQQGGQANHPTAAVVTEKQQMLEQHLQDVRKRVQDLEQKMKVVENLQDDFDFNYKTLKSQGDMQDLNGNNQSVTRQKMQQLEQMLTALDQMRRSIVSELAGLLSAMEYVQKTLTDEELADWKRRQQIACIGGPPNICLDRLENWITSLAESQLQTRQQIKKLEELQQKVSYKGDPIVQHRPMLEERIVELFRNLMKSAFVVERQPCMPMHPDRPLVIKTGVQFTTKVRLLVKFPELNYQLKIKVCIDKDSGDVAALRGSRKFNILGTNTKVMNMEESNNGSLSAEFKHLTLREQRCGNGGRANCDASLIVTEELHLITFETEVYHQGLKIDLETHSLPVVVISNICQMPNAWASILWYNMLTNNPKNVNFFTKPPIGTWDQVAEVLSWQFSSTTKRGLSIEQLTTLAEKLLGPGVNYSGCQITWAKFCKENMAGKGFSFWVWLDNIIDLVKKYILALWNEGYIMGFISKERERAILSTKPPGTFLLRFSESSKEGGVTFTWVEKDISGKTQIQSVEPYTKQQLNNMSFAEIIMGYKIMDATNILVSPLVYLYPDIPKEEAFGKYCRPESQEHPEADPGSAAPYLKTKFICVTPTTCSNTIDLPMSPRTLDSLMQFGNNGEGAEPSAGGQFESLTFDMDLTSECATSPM
Description: A mouse hypothalamic cell line, GT1-7, was established that expressed both STAT3 and PRMT-2 (FIG. 21B), and used as a cell model for the study of leptin signaling. To further examine whether leptin stimulated endogenous interaction between PRMT-2 and STAT3, extracts from the cells that were untreated or treated with mouse leptin (100 nM) were subjected to immunoprecipitation with anti-STAT3 antibody, followed by immunoblotting with anti-PRMT-2 antibody. […] However, treatment with leptin enhanced that amount PRMT-2 that co-precipitated with STAT3 (FIG. 21B, lane 3). PRMT-2 was not detectable in immunoprecipitates obtained with preimmune rabbit IgG (FIG. 21B, lane 1).

RelA (p65) in 293 cells = target: T3, RelA (p65) in 293 cells (UniProt Q04206 1-551); experiment: immunoprecipitation with anti-HA antibody from transfected 293 cells, immunoblot for p65
T3 construct: also called endogenous p65
T3 sequence (Q04206 whole entry): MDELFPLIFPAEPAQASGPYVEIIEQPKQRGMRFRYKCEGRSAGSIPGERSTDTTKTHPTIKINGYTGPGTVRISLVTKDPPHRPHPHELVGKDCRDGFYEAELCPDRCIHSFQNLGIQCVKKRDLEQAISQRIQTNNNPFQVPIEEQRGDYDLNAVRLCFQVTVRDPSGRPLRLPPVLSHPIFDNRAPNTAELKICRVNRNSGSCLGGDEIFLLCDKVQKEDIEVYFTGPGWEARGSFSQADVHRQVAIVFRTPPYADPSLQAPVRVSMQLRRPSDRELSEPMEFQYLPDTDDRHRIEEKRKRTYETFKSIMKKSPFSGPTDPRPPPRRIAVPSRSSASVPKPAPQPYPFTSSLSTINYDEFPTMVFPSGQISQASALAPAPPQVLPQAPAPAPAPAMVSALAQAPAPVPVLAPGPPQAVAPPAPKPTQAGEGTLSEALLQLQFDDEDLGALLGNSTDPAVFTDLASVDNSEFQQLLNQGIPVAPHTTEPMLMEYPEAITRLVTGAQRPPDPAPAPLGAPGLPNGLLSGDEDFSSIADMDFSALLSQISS
From the text: (§1) To map IκB-α domains that interacted with PRMT2, 293 cells were transfected with HA-tagged PRMT2 (FIG. 5C) and His-tagged derivatives of the indicated IκB-α expression vectors (FIG. 5B) as indicated. 24 hrs later cells were harvested in cell lysis buffer and cell lysates were immunoprecipitated with agarose-conjugated antibody to His (IκB-α) (FIG. 5D, lanes 1-4) and HA (PRMT2) (FIG. 5D, lanes 5-6), fractionated by SDS-PAGE and analyzed by immunoblotting with antibody to HA to detect PRMT2 ((FIG. 5D lanes 1, 2 and lanes 5, 6) and His (FIG. 5D, lanes 3, 4). To map the region of PRMT2 that interacted with endogenous IκB-α and p65, 293 cells were transfected with HA-tagged PRMT2 (FIG. 5C) derivatives as indicated. Cells were harvested 24 hrs after transfection in cell lysis buffer, immunoprecipitated with agarose-conjugated antibody to HA to detect PRMT2 and derivatives (FIG. 5E, lanes 7-15), fractionated by SDS-PAGE and analyzed by immunoblotting with antibody to p65 (FIG. 5E, lanes 7-9), IκB-α (FIG. 5E, lanes 10-12) or HA (FIG. 5E, lanes 13-15).
A polyclonal antibody to recombinant PRMT2 was used to examine the association between endogenous PRMT2 and IκB-α in vivo. […] The domain of IκB-α required for association with PRMT2 was mapped using in vivo immunoprecipitation assays where HA-tagged PRMT2 was coexpressed with truncation mutants of His-tagged IκB-α (FIG. 5B) in 293 cells. The ankyrin domain was both necessary and sufficient for this association (FIG. 5D, lanes 1 and 2). The domain of PRMT2 that interacted with endogenous IκB-α was mapped by immunoprecipitation following expression HA-tagged PRMT2 truncation mutants (FIG. 5C). […] When the ratios of PRMT2 or PRMT2-A binding to IκB-α were compared, both interacted with IκB-α with similar affinity.

[3] = target: T2, IκB-α, endogenous in 293 cells; experiment: immunoprecipitation with anti-HA antibody from transfected 293 cells, immunoblot for endogenous IκB-α
From the text: as §1
(§2) A polyclonal antibody to recombinant PRMT2 was used to examine the association between endogenous PRMT2 and IκB-α in vivo. […] The domain of IκB-α required for association with PRMT2 was mapped using in vivo immunoprecipitation assays where HA-tagged PRMT2 was coexpressed with truncation mutants of His-tagged IκB-α (FIG. 5B) in 293 cells. […]

[4] = target: T2, IκB-α, endogenous in 293 cells; experiment: immunoprecipitation with anti-HA antibody from transfected 293 cells, immunoblot for IκB-α
From the text: as §1, §2

Row | Binder | E2F reporter activity (E2F4B-Luc) in MEFs [1] | binding result [2] | binding result (RelA (p65) in 293 cells) | binding result [3] | binding result [4]
1 | B1 | ~3 fold | binds | – | – | –
2 | B2 | – | – | no binding | binds | –
3 | B3 | – | – | no binding | – | no binding
